Experimental data published in patent publication US20190241661A1.
One block for each substance: values may come before it.

Key:
CD55, human (human) [1] = target: CD55, human (human) (UniProt P08174); assay: FACS titration on carcinoma cells, secondary antibody; dilution 1/10000, final 0.1 µg/ml
CD55, human (human) [2] = target: CD55, human (human) (UniProt P08174); assay: FACS titration on carcinoma cells, secondary antibody; dilution 1/1000, final 1 µg/ml
CD55, human (human) [3] = target: CD55, human (human) (UniProt P08174); assay: FACS titration on carcinoma cells, secondary antibody; dilution 1/100, final 10 µg/ml
CD55, human (human) [4] = target: CD55, human (human) (UniProt P08174); assay: FACS titration on carcinoma cells, secondary antibody; dilution 1/5000, final 0.2 µg/ml
CD55, human (human) [5] = target: CD55, human (human) (UniProt P08174); assay: FACS titration on carcinoma cells, secondary antibody; dilution 1/500, final 2 µg/ml
CD55, human (human) [6] = target: CD55, human (human) (UniProt P08174); assay: FACS titration on carcinoma cells; dilution just sufficient for a saturated staining
CD55, human (human) [7] = target: CD55, human (human) (UniProt P08174); assay: FACS titration on carcinoma cells, secondary antibody; dilution 1/10, final 100 µg/ml
CD46, human (human) [8] = target: CD46, human (human) (UniProt P15529); assay: flow cytometry; directly labelled antibody on wild-type SK-OV-3 cells
Chain of UniProt P15529 (P15529 35-392): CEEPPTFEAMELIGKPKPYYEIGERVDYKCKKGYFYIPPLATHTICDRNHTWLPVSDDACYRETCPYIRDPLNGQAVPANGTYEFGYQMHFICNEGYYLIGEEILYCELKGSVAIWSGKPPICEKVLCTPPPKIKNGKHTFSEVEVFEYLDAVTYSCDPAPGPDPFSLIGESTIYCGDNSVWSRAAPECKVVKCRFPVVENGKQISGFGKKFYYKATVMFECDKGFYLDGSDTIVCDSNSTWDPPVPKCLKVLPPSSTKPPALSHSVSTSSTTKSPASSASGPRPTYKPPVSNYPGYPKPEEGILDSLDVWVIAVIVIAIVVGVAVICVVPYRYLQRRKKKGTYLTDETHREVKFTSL

CD46, human (human) [9] = target: CD46, human (human) (UniProt P15529); assay: flow cytometry; directly labelled antibody on siRNA knockdown SK-OV-3 cells
CD46, human (human) [10] = target: CD46, human (human) (UniProt P15529); assay: FACS titration on carcinoma cells, secondary antibody; dilution 1/500, final 0.2 µg/ml
CD46, human (human) [11] = target: CD46, human (human) (UniProt P15529); assay: FACS titration on carcinoma cells, secondary antibody; dilution 1/10000, final 0.01 µg/ml
CD46, human (human) [12] = target: CD46, human (human) (UniProt P15529); assay: FACS titration on carcinoma cells, secondary antibody; dilution 1/100, final 1 µg/ml
CD46, human (human) [13] = target: CD46, human (human) (UniProt P15529); assay: FACS titration on carcinoma cells, secondary antibody; dilution 1/1000, final 0.1 µg/ml
CD46, human (human) [14] = target: CD46, human (human) (UniProt P15529); assay: FACS titration on carcinoma cells, secondary antibody; dilution 1/10, final 10 µg/ml
CD46, human (human) [15] = target: CD46, human (human) (UniProt P15529); assay: FACS titration on carcinoma cells, secondary antibody; dilution 1/5000, final 0.02 µg/ml
CD46, human (human) [16] = target: CD46, human (human) (UniProt P15529); assay: FACS titration on carcinoma cells; dilution just sufficient for a saturated staining
CD59, human (human) [17] = target: CD59, human (human) (UniProt P13987); assay: FACS titration on carcinoma cells, secondary antibody; dilution 1/10000, final 0.1 µg/ml
Chain of UniProt P13987 (P13987 26-102): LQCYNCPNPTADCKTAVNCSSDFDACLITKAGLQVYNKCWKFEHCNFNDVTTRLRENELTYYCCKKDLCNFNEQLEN

CD59, human (human) [18] = target: CD59, human (human) (UniProt P13987); assay: FACS titration on carcinoma cells, secondary antibody; dilution 1/1000, final 1 µg/ml
CD59, human (human) [19] = target: CD59, human (human) (UniProt P13987); assay: FACS titration on carcinoma cells, secondary antibody; dilution 1/100, final 10 µg/ml
CD59, human (human) [20] = target: CD59, human (human) (UniProt P13987); assay: FACS titration on carcinoma cells, secondary antibody; dilution 1/5000, final 0.2 µg/ml
CD59, human (human) [21] = target: CD59, human (human) (UniProt P13987); assay: FACS titration on carcinoma cells, secondary antibody; dilution 1/500, final 2 µg/ml
CD59, human (human) [22] = target: CD59, human (human) (UniProt P13987); assay: FACS titration on carcinoma cells; dilution just sufficient for a saturated staining
CD59, human (human) [23] = target: CD59, human (human) (UniProt P13987); assay: FACS titration on carcinoma cells, secondary antibody; dilution 1/10, final 100 µg/ml
CD59, human (human) [24] = target: CD59, human (human) (UniProt P13987); assay: flow cytometry; directly labelled antibody on wild-type SK-OV-3 cells
CD59, human (human) [25] = target: CD59, human (human) (UniProt P13987); assay: flow cytometry; directly labelled antibody on siRNA knockdown SK-OV-3 cells
CD55, human (human) [26] = target: CD55, human (human) (UniProt P08174); assay: flow cytometry; directly labelled antibody on wild-type SK-OV-3 cells
CD55, human (human) [27] = target: CD55, human (human) (UniProt P08174); assay: flow cytometry; directly labelled antibody on siRNA knockdown SK-OV-3 cells
CD46, human (human) [28] = target: CD46, human (human) (UniProt P15529); assay: FACS titration on carcinoma cells, secondary antibody; dilution 1/10000, final 0.1 µg/ml
CD46, human (human) [29] = target: CD46, human (human) (UniProt P15529); assay: FACS titration on carcinoma cells, secondary antibody; dilution 1/1000, final 1 µg/ml
CD46, human (human) [30] = target: CD46, human (human) (UniProt P15529); assay: FACS titration on carcinoma cells, secondary antibody; dilution 1/100, final 10 µg/ml
CD46, human (human) [31] = target: CD46, human (human) (UniProt P15529); assay: FACS titration on carcinoma cells, secondary antibody; dilution 1/5000, final 0.2 µg/ml
CD46, human (human) [32] = target: CD46, human (human) (UniProt P15529); assay: FACS titration on carcinoma cells, secondary antibody; dilution 1/500, final 2 µg/ml
CD46, human (human) [33] = target: CD46, human (human) (UniProt P15529); assay: FACS titration on carcinoma cells, secondary antibody; dilution 1/10, final 100 µg/ml

Chain of UniProt P08174 (P08174 35-353): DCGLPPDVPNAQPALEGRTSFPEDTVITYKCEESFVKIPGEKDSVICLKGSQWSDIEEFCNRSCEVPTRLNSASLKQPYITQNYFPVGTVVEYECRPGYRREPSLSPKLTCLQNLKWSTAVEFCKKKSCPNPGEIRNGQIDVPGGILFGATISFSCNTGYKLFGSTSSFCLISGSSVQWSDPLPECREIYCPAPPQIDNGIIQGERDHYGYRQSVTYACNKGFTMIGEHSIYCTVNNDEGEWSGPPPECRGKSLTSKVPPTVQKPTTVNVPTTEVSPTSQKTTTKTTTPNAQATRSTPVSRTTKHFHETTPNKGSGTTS

- Geom. Mean. FITC (geom. mean FITC) (CD55, human (human) [1]): 24100
- Geom. Mean. FITC (geom. mean FITC) (CD55, human (human) [2]): 25100
- Geom. Mean. FITC (geom. mean FITC) (CD55, human (human) [3]): 26900
- Geom. Mean. FITC (geom. mean FITC) (CD55, human (human) [4]): 23700
- Geom. Mean. FITC (geom. mean FITC) (CD55, human (human) [5]): 25200
- 1x conc. (1-time saturating concentration) (CD55, human (human) [6]): 0.1 µg/mL
- Geom. Mean. FITC (geom. mean FITC) (CD55, human (human) [7]): 32000
Substance: anti-human CD55 antibody #387, clone BRIC216 (AbD Serotec, MCA914)

- FACS signal (FITC) (CD46, human (human) [8]): 683 FITC signal
- FACS signal (FITC) (CD46, human (human) [9]): 662 FITC signal
Substance: anti-CD46-FITC antibody (BD Pharmingen, Cat. No. 555949)

- Geom. Mean. FITC (geom. mean FITC) (CD46, human (human) [10]): 74000
- Geom. Mean. FITC (geom. mean FITC) (CD46, human (human) [11]): 14000
- Geom. Mean. FITC (geom. mean FITC) (CD46, human (human) [12]): 81800
- Geom. Mean. FITC (geom. mean FITC) (CD46, human (human) [13]): 50000
- Geom. Mean. FITC (geom. mean FITC) (CD46, human (human) [14]): 84000
- Geom. Mean. FITC (geom. mean FITC) (CD46, human (human) [15]): 15800
- 1x conc. (1-time saturating concentration) (CD46, human (human) [16]): 0.3 µg/mL
Substance: anti-human CD46 antibody #383, clone M177 (Hycult, HM2103)

- Geom. Mean. FITC (geom. mean FITC) (CD59, human (human) [17]): 82400
- Geom. Mean. FITC (geom. mean FITC) (CD59, human (human) [18]): 95500
- Geom. Mean. FITC (geom. mean FITC) (CD59, human (human) [19]): 95500
- Geom. Mean. FITC (geom. mean FITC) (CD59, human (human) [20]): 94000
- Geom. Mean. FITC (geom. mean FITC) (CD59, human (human) [21]): 95500
- 1x conc. (1-time saturating concentration) (CD59, human (human) [22]): 0.2 µg/mL
- Geom. Mean. FITC (geom. mean FITC) (CD59, human (human) [23]): 95200
Substance: anti-human CD59 antibody #384, clone MEM43 (antibodies online, ABIN118751)

- FACS signal (PE) (CD59, human (human) [24]): 1190 PE signal
- FACS signal (PE) (CD59, human (human) [25]): 649 PE signal
Substance: anti-CD59-PE antibody (BD Pharmingen, Cat. No. 555764)

- Geom. Mean. PE (geom. mean PE) (CD59, human (human) [17]): 50100
- Geom. Mean. PE (geom. mean PE) (CD59, human (human) [18]): 60500
- Geom. Mean. PE (geom. mean PE) (CD59, human (human) [19]): 64200
- Geom. Mean. PE (geom. mean PE) (CD59, human (human) [20]): 53800
- Geom. Mean. PE (geom. mean PE) (CD59, human (human) [21]): 62700
- 1x conc. (1-time saturating concentration) (CD59, human (human) [22]): 0.1 µg/mL
- Geom. Mean. PE (geom. mean PE) (CD59, human (human) [23]): 55400
Substance: anti-human CD59 antibody #385, clone YTH53.1 (AbD Serotec, MCA715G)

- FACS signal (APC) (CD55, human (human) [26]): 1450 APC signal
- FACS signal (APC) (CD55, human (human) [27]): 275 APC signal
Substance: anti-CD-55-APC antibody (BD Pharmingen, Cat. No. 555696)

- Geom. Mean. FITC (geom. mean FITC) (CD46, human (human) [28]): 53500
- Geom. Mean. FITC (geom. mean FITC) (CD46, human (human) [29]): 75200
- Geom. Mean. FITC (geom. mean FITC) (CD46, human (human) [30]): 79500
- Geom. Mean. FITC (geom. mean FITC) (CD46, human (human) [31]): 66400
- Geom. Mean. FITC (geom. mean FITC) (CD46, human (human) [32]): 75500
- 1x conc. (1-time saturating concentration) (CD46, human (human) [16]): 0.2 µg/mL
- Geom. Mean. FITC (geom. mean FITC) (CD46, human (human) [33]): 87600
Substance: anti-human CD46 antibody #386, clone MEM258 (AbD Serotec, MCA2113)
